Assays:
[1] = target: IRE1-KR43 labeled with RED dye (human); assay: MST; 100 nM IRE1-KR43 labeled with RED dye incubated with 80S at various concentrations for 30 min at 25°C; Monolith NT.115, 20% LED power, 40% IR-laser
[2] = target: IRE1 KR with N-terminal 6× His-tag (human); assay: BLI; His-tagged IRE1 KR coupled to Ni-NTA biosensors; 80S or 60S at 5 to 500 nM in solution; 25°C, 25 mM HEPES pH 7.4, 150 mM KCl, 5 mM MgCl2, 250 µM TCEP; OCTET RED384

Substance: purified 80S ribosomes (complex)
- Kd [1]: 30 nM
- Kd [2]: 33.4 nM
- koff [2]: 0.0598 s⁻¹
- kon [2]: 1.81e+06 M⁻¹ s⁻¹

Reference: article PMC6336407
